Our source for the Kd values is article PMC12273574, “Biochemical and structural characterization of a GNAT superfamily protein acetyltransferase from Helicobacter pylori” (The Journal of Biological Chemistry, 2025).

The target of the assay is DNA processing protein A (DprA) from Helicobacter pylori strain J99 (Helicobacter pylori strain J99) (UniProt B5ZAA1). Nature of the assay: SPR; Biacore 3000; DprA immobilised on a CM5 chip (~500 RU), HP0935 passed over at varying concentrations; 50 mM Tris-Cl pH 7.4, 25 °C, 20 μl/min, 300 s dissociation; Langmuir binding fit.

For “HP0935, N-acetyltransferase domain-containing protein (GNAT superfamily protein acetyltransferase) from Helicobacter pylori strain 26695 (from UniProt O25589 2-161) (enzyme)”, the Kd was determined as 3.28 µM.
